Test: label from the status in PepcDB records

Sequence	protein production
MAGHTDNEITIAAPMELVWNMTNDIEKWPGLFSEYASVEVLGRDDDKVTFRLTMHPDADGKVWSWVSERVADPVTRTVRAQRVETGPFQYMNIVWEYAETAEGTVMRWTQDFAMKPDAPVDDAWMTDNINRNSRTQMALIRDRIEQAAGERRTASVLADLEHHHHHH	not failed
MKTAIVTDSASYLSAADVEKYHIHVVPITVIFGHQTYLENVEITSKEFYERMRTAPELPTTTQITLGQMQTTYDQLAKAGYDAVISIHLSSGITSFITNLESYLPNVTNIKVYPFDSLITAGGEAYMVLLAAKLVTEGYSPEQVIAQLKKIRETTGVYFVVDNLSHLVRTGRLSNASGLVGNLLRIKPVLTFQDGKIVAIQKERTMRRAYAAIKAKLAAEIAAVDYPLRVTIENGNNPKLQAEWTADLKASFPDLTIDEGEIGPVVGVHVGEGVMGLIWARDWEKWTI	failed
MTNAMELYQMLPKTNCKKCGKTSCMAFAVALMARELTPEDCPPLKEEPKYKESYEKLSEIFKPSEGATETGLIVHEDLCFGCGNCVVACPPNVANDPYGVGSGKAPTNPGRLVLTVEDGVVKAQNLGECRRFGKNKILCNGCIVTCPVEAIEFV	failed
MIGIVAAFEKVKIPEMGKSFGTGWLPPLPSLKDYTEESAQIPEMAEKLGIPTSRKETKTLELPVSIDFRNWCSPIEDQMDLGSCTAHAGVGVVEYFERRAFGKHIDGSRFFVYKTTRNLMGVKGDTGAWLRNTMGALALCGVPPEKYFPYTSRKTPGPDGEPTFDDEPSSFVYSLADNFEALNYFCHDPQGMNLPPEDVILSVKKYLAAGIPSMFGFYGFPSFKDTDVKGGIPFPGPDERSIWGHAVVAVGYDDNMKIRNTLSNKETTGAFLIRNSWGTAWGDKGYGWLPYEYALNKFALDFWSLISMKWVETGNFGLELESSRSRARETLSRDMPLPHALEHHHHHH	not failed
MASLGSAAAGEPATGAEAEPGPPAPPPPPPPPPAPSPSALGPLLPLQREPLYNWQATKASLKERFAFLFNSELLSDVRFVLGKGRGAAAAGGPQRIPAHRFVLAAGSAVFDAMFNGGMATTSAEIELPDVEPAAFLALLRFLYSDEVQIGPETVMTTLYTAKKYAVPALEAHCVEFLTKHLRADNAFMLLTQARLFDEPQLASLCLDTIDKSTVDAISAEGFTDIDIDTLCAVLERDTLSIRESRLFGAIVRWAEAECQRQQLAVTFGNKQKVLGKALSLIRFPLMTIEEFAAGPAQSGILSDREVVNLFLHFTVNPKPRVEYIDRPRCCLRGKECCINRFQQVESRWGYSGTSDRIRFTVNRRISVVGFGLYGSIHGPTDYQVNIQIIEYEKKQTLGQNDTGFSCDGTANTFRVMFKEPIEILPNVCYTACATLKGPDSHYGTKGLKKVVHETPAASKTVFLFFSSPGNNNGTSIEDGQIPEIIFYT	failed
MKSLKGIIYAMISSGTFGLIPLFTIPLMGNMEMNESNILFYRFLFSTLMMGAVCLLHKSTLKINMKHLISIIGLGALYALTALFLIYSYHYITSGVATTIHFLYPICVSFLMVVFFKEQKSKSLFLAASLSLIGVALMCWSGGGSIRLMGIGLAALTILTYGIYIVALNQLDIGKLPAEVLTFYVLLGGCVIFFIYSLFTAGISSIPSTKAGFYILALAFLSTVISDLTLILAVKYAGSTTTAILGSMEPLVAVVVGVLVFSEHFTLQSLIGLLLILMSVIIVILADQQKKSKRITEQKIIKPH	failed
MFPRALAIGTPAQHKATEAPVTSTSASGLARFNTLEETAALAELHEACAATAWARHLLAARPFATAEDLYAASDAAMAELSAEDLAEAMAGHPPIGRPKPGDATSSREQAGMAGAAEELKAEMLELNLAYQDKFGHVFLICATGRTGEQMRDAALERIGNSPEQEREIVRTELGKINRIRLTRLVEQDARPLEHHHHHH	not failed
YQEPKGELVISAPTMFGRQHVLPVISEFIARYPLIRVRLLLSDRNADLVSDHVDLAVRIGDLADSSMVATRLGTMRIVACAHPALLAKYGEPQRPRDLAALPIIRIESPMPYRGWRFRAAEREDQLINLPPVLSVTTPESA	failed
MKYYDEVPIIRSVAAMLVVAIHTVNSIALSRGTFTSDGLGYVNQIARLGTPIFAVISAFLLTISVVNKGFNLDYFVKSRFSKIFIPYIIWTVFYLLYRAFYLHNLEDDGKLLNYFVYGKANFHLYFILTVIQFYFLFPLLQKFKKGWPIIIVYILATIANIIWIRMGPVSLGGGGVERFVNDKLFIMNWISFFMLGIVYAKFYNEIRILIFKHKAILSTIIGILFIDFLLSIDLDHLQSSITVSNMIYIPFFIVFLNYLYEHVKKNHTILKTLTLIGNYSMGIYLVHYVAIQFVKRLPIIEDIVPQSKFMGVFILTVAVSVLIVYLIGKIPYGNYIVPIPKKKATQTTDVDKKKVTQSKHTPNYNS	failed

— a protein production outcome set (Wang et al. 2014)
